Values quoted from earlier work, collected in PMC4599565.

Molecular target: VWF (Homo sapiens) (UniProt P04275)

Kd: 0.02 µM
Substance: ADAMTS13 (from UniProt Q76LX8)
